Laboratory results taken from patent US20180362668A1 (JIANGSU ALPHAMAB BIOPHARMACEUTICALS, published 2018).
Numbering of substitutions follows the chain as printed. Names may count otherwise.

Assays:
[1] = molecular target: the molecule itself; assay: non-reducing SDS-PAGE densitometry of Protein A-purified co-transfection product; chain A:chain B vectors 1:1
Source text: The cotransfection ratio of recombinant expression vector of the chain A to that of the chain B was 1:1.

[2] = molecular target: the molecule itself; assay: as above; remark: listed apart in the source
Source text: (§1) The cotransfection ratio of recombinant expression vector of the chain A to that of the chain B was 4:1, 1:1 and 1:4.

[3] = molecular target: the molecule itself; assay: non-reducing SDS-PAGE densitometry of Protein A-purified co-transfection product; chain A:chain B vectors 1:4
Source text: as §1

[4] = molecular target: the molecule itself; assay: non-reducing SDS-PAGE densitometry of Protein A-purified co-transfection product; chain A:chain B vectors 4:1
Source text: as §1

[5] = molecular target: the molecule itself; assay: non-reducing SDS-PAGE densitometry of Protein A-purified co-transfection product; chain A:chain B vectors 1:1; remark: listed apart in the source
Source text: (§2) The cotransfection ratio of recombinant expression vector of the chain A to that of the chain B was 4:1, 1:1 and 1:4. The transiently expressed culture supernatant was collected after 5-6 days of cultivation.

[6] = molecular target: the molecule itself; assay: non-reducing SDS-PAGE densitometry of Protein A-purified co-transfection product; chain A:chain B vectors 1:4; remark: listed apart in the source
Source text: as §2

[7] = molecular target: the molecule itself; assay: non-reducing SDS-PAGE densitometry of Protein A-purified co-transfection product; chain A:chain B vectors 4:1; remark: listed apart in the source
Source text: as §2

B1: Fc protein chain B with D356C + T366S + L368A + Y407V + K360E + Q347E (other)
chain: DKTHTCPPCPAPELLGGPSVFLFPPKPKDTLMISRTPEVTCVVVDVSHEDPEVKFNWYVDGVEVHNAKTKPREEQYNSTYRVVSVLTVLHQDWLNGKEYKCKVSNKALPAPIEKTISKAKGQPREPEVYTLPPSRCELTENQVSLSCAVKGFYPSDIAVEWESNGQPENNYKTTPPVLDSDGSFFLVSKLTVDKSRWQQGNVFSCSVMHEALHNHYTQKSLSLSPGK
notes: also called combination 6 chain B
[1]
  Proportion of Fc homodimer (%): 24%

B2: Fc protein chain B with D356C + T366S + L368A + Y407V + F405K + K360E + Q347E (other)
chain: B1 chain with F185K
notes: also called combination 8 chain B
[1]
  Proportion of Fc homodimer (%): 8%

B3: Fc protein chain B with D356C + T366S + L368A + Y407V + F405K + Q347R (other)
chain: B1 chain with E127R, E140K, F185K
notes: also called combination 7 chain B
[1]
  Proportion of Fc homodimer (%): 12%

B4: ScFv-Fc fusion protein chain A with Y349C + T366W + K409A + L368E (Fc fusion)
chain: EVQLLESGGGVVQPGRSLRLSCIASGFTFSSYPMTWVRQAPGKGLEWVASISYDGSYKYKADSMKGRLTISRDNSKNTLYLEMNSLTAEDTAVYYCARTAFFNAYDFWGQGTLVTVSSASTKGPSVGGGGSGGGGSEIVMTQSPATLSVSPGERATLSCRASQSVRSNLAWYQQKPGQAPRLLIYAASTRATGIPARFSGSGSGTEFTLTISSLQSEDFAVYYCQQYNEWFRTSGQGTKVEIKRDKTHTCPPCPAPELLGGPSVFLFPPKPKDTLMISRTPEVTCVVVDVSHENPEVKFNWYVDGVEVHNAKTKPREEQYNSTYRVVSVLTVLHQDWLNGKEYKCKVSNKALPAPIEKTISKAKGQPREPQVCTLPPSRDELTKNQVSLWCEVKGFYPSDIAVEWESNGQPENNYKTTPPVLDSDGSFFLYSALTVDKSRWQQGNVFSCSVMHEALHNHYTQKSLSLSPGK
notes: Positions are EU index; also called combination 9 chain A
[1]
  ScFv-Fc homodimer (%): 39%

B5: ScFv-Fc fusion protein chain A with Y349C + T366W + F405K + K360E + Q347E (Fc fusion)
chain: B4 chain with Q371E, K384E, E392L, F429K, A433K
notes: Positions are EU index; also called combination 5 chain A
[1]
  ScFv-Fc homodimer (%): 14%

B6: ScFv-Fc fusion protein chain A with Y349C + T366W + F405K + Q347R (Fc fusion)
chain: B4 chain with Q371R, E392L, F429K, A433K
notes: Positions are EU index; also called combination 6 chain A
[1]
  ScFv-Fc homodimer (%): 14%

B7: ScFv-Fc fusion protein chain A with T366W + K409A (Fc fusion)
chain: B4 chain with C373Y, E392L
notes: Positions are EU index; also called combination 11 chain A
[2]
  ScFv-Fc homodimer (%): 15%
[3]
  ScFv-Fc homodimer (%): 11%
[4]
  ScFv-Fc homodimer (%): 52%

B8: ScFv-Fc fusion protein chain A with Y349C + T366W + K409A + K360E + Q347E (Fc fusion)
chain: B4 chain with Q371E, K384E, E392L
notes: Positions are EU index; also called combination 7 chain A
[1]
  ScFv-Fc homodimer (%): 24%

B9: ScFv-Fc fusion protein chain A with T366W + F405K (Fc fusion)
chain: B4 chain with C373Y, E392L, F429K, A433K
notes: Positions are EU index; also called combination 16 chain A
[5]
  ScFv-Fc homodimer (%): 5%
[6]
  ScFv-Fc homodimer (%): 3%
[7]
  ScFv-Fc homodimer (%): 23%

B10: ScFv-Fc fusion protein chain A with T366W + F405K + D399S (Fc fusion)
chain: B4 chain with C373Y, E392L, D423S, F429K, A433K
notes: Positions are EU index; also called combination 15 chain A
[5]
  ScFv-Fc homodimer (%): 6%
[6]
  ScFv-Fc homodimer (%): < 1%
[7]
  ScFv-Fc homodimer (%): 28%

B11: ScFv-Fc fusion protein chain A with T366W + K409A + Y349D (Fc fusion)
chain: B4 chain with C373D, E392L
notes: Positions are EU index; it is not used here; also called combination 12 chain A
[2]
  ScFv-Fc homodimer (%): 14%
[3]
  ScFv-Fc homodimer (%): 9%
[4]
  ScFv-Fc homodimer (%): 48%

B12: ScFv-Fc fusion protein chain A with T366W + K409A + K392D (Fc fusion)
chain: B4 chain with C373Y, E392L, K416D
notes: Positions are EU index; also called combination 10 chain A
[2]
  ScFv-Fc homodimer (%): 7%
[3]
  ScFv-Fc homodimer (%): < 1%
[4]
  ScFv-Fc homodimer (%): 39%

B13: ScFv-Fc fusion protein chain A with Y349C + T366W + K409A + Q347R (Fc fusion)
chain: B4 chain with Q371R, E392L
notes: Positions are EU index; also called combination 8 chain A
[1]
  ScFv-Fc homodimer (%): 21%

B14: ScFv-Fc fusion protein chain A with T366W + F405K + Y349D + S354D (Fc fusion)
chain: B4 chain with C373D, S378D, E392L, F429K, A433K
notes: Positions are EU index; also called combination 18 chain A
[5]
  ScFv-Fc homodimer (%): 9%
[6]
  ScFv-Fc homodimer (%): 5%
[7]
  ScFv-Fc homodimer (%): 29%

B15: ScFv-Fc fusion protein chain A with T366W + K409A + Y349D + S354D (Fc fusion)
chain: B4 chain with C373D, S378D, E392L
notes: Positions are EU index; also called combination 13 chain A
[2]
  ScFv-Fc homodimer (%): 10%
[3]
  ScFv-Fc homodimer (%): 2%
[4]
  ScFv-Fc homodimer (%): 37%

B16: VhH-Fc fusion protein chain B with T366S + L368G + Y407A + K409A (Fc fusion)
chain: QVQLQESGGGSVQAGGSLRLSCAASEYIYSSYCMAWFRQAPGKEREGVAVIGSDGSTSYADSVKGRFTISKDNAKNTLYLQMNSLKPEDTAMYYCAAIGGYCYQPPYEYQYWGQGTQVTVSSEPKSSDKTHTCPPCPAPELLGGPSVFLFPPKPKDTLMISRTPEVTCVVVDVSHEDPEVKFNWYVDGVEVHNAKTKPREEQYNSTYRVVSVLTVLHQDWLNGKEYKCKVSNKALPAPIEKTISKAKGQPREPQVYTLPPSRDELTKNQVSLSCGVKGFYPSDIAVEWESNGQPENNYKTTPPVLDSDGSFFLASALTVDKSRWQQGNVFSCSVMHEALHNHYTQKSLSLSPGK
notes: Positions are EU index; also called combination 16 chain B
[5]
  VhH-Fc homodimer (%): 7%
[6]
  VhH-Fc homodimer (%): 4%
[7]
  VhH-Fc homodimer (%): < 1%

B17: VhH-Fc fusion protein chain B with T366S + L368G + Y407A + F405K (Fc fusion)
chain: B16 chain with F312K, A316K
notes: Positions are EU index; also called combination 11 chain B
[2]
  VhH-Fc homodimer (%): 0%
[3]
  VhH-Fc homodimer (%): 0%
[4]
  VhH-Fc homodimer (%): 0%
